Consider 24 sequences from a protein production outcome set (Wang et al. 2014).

This data set can be described thus: label from the status in PepcDB records.

Consider “MVLQKLPLIGLLLLLTIVASPANADGPVCPPSNKLSRASFPEGFLFGTATAAYQVEGAINETCRGPALWDIYCRRYPERCNNDNGDVAVDFFHRYKEDIQLMKNLNTDAFRMSIAWPRIFPHGRKEKGVSQAGVQFYHDLIDELIKNGITPFVTVFHWDTPQDLEDEYGGFLSERIVKDFREYADFVFQEYGGKVKHWITFNEPWVFSHAGYDVGKKAPGRCSSYVNAKCQDGRSGYEAYLVTHNLLISHAEAVEAYRKCEKCKGGKIGIAHSPAWFEAHDLADSQDGASIDRALDFILGWHLDTTTFGDYPQIMKDIVGHRLPKFTTEQKAKLKASTDFVGLNYYTSVFSNHLEKPDPSKPRWMQDSLITWESKNAQNYAIGSKPLTAALNVYSRGFRSLLKYIKDKYANPEIMIMENGYGEELGASDSVAVGTADHNRKYYLQRHLLSMQEAVCIDKVNVTGYFVWSLLDNFEWQDGYKNRFGLYYVDFKNNLTRYEKESGKYYKDFLSQGVRPSALKKDEL”, for which the protein production result is recorded as “failed”.

As to “MVLYFIGLGLYDERDITVKGLEIAKKCDYVFAEFYTSLMAGTTLGRIQKLIGKEIRVLSREDVELNFENIVLPLAKENDVAFLTPGDPLVATTHAELRIRAKRAGVESYVIHAPSIYSAVGITGMHIYKFGKSATVAYPEGNWFPTSYYDVIKENAERGLHTLLFLDIKAEKRMYMTANEAMELLLKVEDMKKGGVFTDDTLVVVLARAGSLNPTIRAGYVKDLIREDFGDPPHILIVPGKLHIVEAEYLVEIAGAPREILRVNV”, the protein production result is recorded as “not failed”.

Turning to “MVMFRGHLLCFGLGYSALRLARGLLRDGWRVSGTCRSEEKRQALSAQGITAFVFDETTPLPAEAWTGVTHVLVSIPPGPDGDPVLALHRADLLALRPEWLGYFSTTGVYGDTGGAWVDEGKPVRPTQERSKRRVAAEEDWLDLWRDEDLPVHLLRLAGIYGPGRSVFDQLRAGTAKRIIRPGHAFSRIHVDDIGLITRASMADPDPGAIYNLVDDEPAEPSEVMDHACALLGIDPPPAQSFDEVAPGLSPMALSFWADNRKVSNERLWDDLRLRLLYPTFRQGLEAILAEETGRVAEGPPVYKEASDC”, the protein production result is “failed”.

With “MVMPVKKVEKNILVLHGADKMFELVDKVEDYPHFLPWYSKTEVIGRSGNELKARLFMDYMHVRQSFATHNRNIPGREIRMELLEGPFKTLRGTWKFIDLGDDMCKIEFNLEYDFSNAVLSALISPVFNHLSVTLVEAFVKEADRRYA”, the protein production entry is recorded as “failed”.

“MVNEYKRIVLLRGLECINKHYFSLFKSLLARDLNLERDNQEQYTTIQIANMMEEKFPADSGLGKLIEFCEEVPALRKRAEILKKERSEGETSLEKNGQEAGPATPTSTTSHMLASERGETSATQEETSTAQAGTSTAQAGTSTAQAGTSTA”: the protein production result is reported as “not failed”.

Take “MVNFAVWLDGVILKIDLTDSLYKIYKGDQISLPITYEVNDDWIKVYDRIREANLAILSPYDEITTKAILERINLKPTYVIANRGKTKPSREPYRILIEVTGWDPLQVVTLASSPLDLLSARFFDSRIKVICVKRYQDCSKYSPFLYSENLDDAISSLKRLKIIR”: the protein production result was “failed”.

On to “MVNLMILSGIVLLTCIISSKIFYKWGVPVLLVFIIIGMLFGSDGIGGIYFDNYNITYSLSSIALVFIMFYGGFCTEWKKARSVAIPSIMLSTLGVIITAGLTGLFCHFVLKTSIFEGLLLGCIVASTDAASVISILRSRNLKLKNNIDTLVEFESGSNDPTAYMLTSVMLIFITSNESVGIGLLGMIFKQIVFGVTVGLFLSKLAVFILRKVEFEIEGLYPIFTITVAILAYSISEFLGGNGYLSVFIAGIVMGNSKIPHKKSLNHFFDGLSWIMQIILFFMLGLLAFPSQLPSIAFEGIAISIFLILVGRPIAVFTILSWFKVPIKEQMFISWVGLRGAGSLVFAIYAITKTSAIENDIFHIIFFIALFSVAIQGTLIPWFAKKLDLICYEDDNHEDNMKNNIKDYIFEVKVGENNKVVNKAIMDSEIPDEILIVMIKRDNKVVIPKGFTIIKPNDTLVLTSENNEIMNSFLDEIR”, for which the protein production result was “failed”.

For “MVNQNLTATEIGFTHEDFAALLDKYDYHFSPGDVVPGTVFSIEPRGALIDIGAKTAAYIPIQEMSINRVDAPEEVLQSNETREFFILTDENEDGQLTLSIRRIEYMRAWERVRQLQAEDATVRSGVFATNRGGALVRIEGLRGFIPGSHISTRKPKEELVGEELPLKFLEVDEERNRLVLSHRRALVERKMNRLEVGEVVIGTVRGIKPYGAFIDIGGVSGLLHISEISHEHIDTPHSVFNVNDEVKVMIIDLDAERGRISLSTKQLEPEPGDMIKNRDLVYDKAEEMAAKYREQLLAKQQGITLPAEGAEDLIEEEIPPATEDAVAEEEIVAVEEIPAAIEE”, the protein production entry is “failed”.

“MVPDWEEVLGLWRAGRYYEVHEVLEPYWLKATGEERRLLQGVILLAAALHQRRLGRPGLRNLRKAEARLEGLPCPLMGLDWRSLLQEARRRLGA”: the protein production entry is given as “not failed”.

In the case of “MVPHHWASLWNRQLALQTSVRRRLRKEIDLIRFLKATAAADELTGIVGIAAQVIEALGEWGVGLLTLLETVFPPIPSEVILPLAGFLTQQGSMNLILVFVTSTLGAYAGAMLLYWLGYKVGLERSIKLLSKLPLVDREDFEKAAEWFERHGKSAIFFGRLLPGVRSLISLPAGAERMNLATFSVFTVAGTGLWNALLIGAGALLGKQYHLVDQYSRFLNYAVYAGLAALLVWLIIRRVKKRKESTR”, the protein production result is given as “failed”.

Regarding “MVPHIDGLFLRDVEAVLTAPDRADLPVLNPGLGTWVDKTTVTWFKFNHQLAVTIGDILQRNFHHAWPTYRMIPVVFKASTLCMHTWDSRHTLTVWTQFNLVARTLYRDNMRAMKRRWARGLDKSRWMTTTVWNDLVDMFTEFGPDDVGFMS”, the protein production result was “failed”.

With “MVPRVPQPGIWCPAVTFFDSKTDTLDLASQERYYAYLARSGLTGLVILGTNAEAFLLTREERAQLIATARKAVGPDFPIMAGVGAHSTRQVLEHINDASVAGANYVLVLPPAYFGKATTPPVIKSFFDDVSCQSPLPVVIYNFPGVCNGIDLDSDMITTIARKNPNVVGVKLTCASVGKITRLAATLPPAAFSVFGGQSDFLIGGLSVGSAGCIAAFANVFPKTVSKIYELYKAGKVDQAMELHRKAALAESPCKSGIATTKYAAAIFSAKAAGIEDAEEKLRPRKPYDPPSEAAKQEVRKVMAEVAAIEAGLS”, the protein production result is “not failed”.

As to “MVQAHGGRSRAQPLTLSLGAAMTQPPPEKTPAKKHVRLQERRGSNVALMLDVRSLGAVEPICSVNTPREVTLHFLRTAGHPLTRWALQRQPPSPKQLEEEFLKIPSNFVSPEDLDIPGHASKDRYKTILPNPQSRVCLGRAQSQEDGDYINANYIRGYDGKEKVYIATQGPMPNTVSDFWEMVWQEEVSLIVMLTQLREGKEKCVHYWPTEEETYGPFQIRIQDMKECPEYTVRQLTIQYQEERRSVKHILFSAWPDHQTPESAGPLLRLVAEVEESPETAAHPGPIVVHCSAGIGRTGCFIATRIGCQQLKARGEVDILGIVCQLRLDRGGMIQTAEQYQFLHHTLALYAGQLPEEPSP”, the protein production result is on record as “failed”.

In the case of “MVQAQTRDQIVAAADELFYRQGFAQTSFVDISAAVGISRGNFYYHFKTKDEILAEVIRLRLARTAQMLADWQGTGDSPRARIASFIDLMIMNRAKITRYGCPVGSLCTELSKLDHAAQGQANGLFTLFRDWLQRQFAEAGCTTEAPALAMHLLARSQGAATLAQSFHDEGFLRSEVADMHRWLDNTLPMTT”, the protein production result is “not failed”.

Turning to “MVQEPTQDHLIGTTVDGRYTVRSRLASGGMSTVYLATDQRLERDVALKVLHPHLANDPTFLERLSREAKAAASLSHPHIVGVLDQGEDGTIAYLVMEYVKGHTLRDTLNEQGALQPRLALALIDPVIEGLAAAHRSGLIHRDVKPENVLIADDGRIKVGDFGLARAISANTSTGALIGTVAYLAPELVLGQPADARSDIYSAGIMLYEMLTGKQPYAGDSPIQVAYQHVNAAVGRPSDAAPGLAEDLDELVQWCTAVDAENRPVDGTALLTELRHIRTTLTDEDLDRRQAPSQPPGSPAAATAAAALGGPGGNPTEAIPATASPTEMISHQSNPTTIMAAAGSGRPQTAAVGAVNHEVVRQPGKRELKRLERQEIKDRARAAATPSRPLREGNPRRRGIIWTIVIVILATLAASAGWFFGMGPGSPGTVPDVKNKTVAEAQQLLRTAGFQSEPKDVFDDDILAGLAVGTEPESGAEVRKFQPITLFVSKGAQLFALPTLTGGSLDEAKTALNAAEMALGNVTQAFDEKVPAGVVISQDPAKGTEVRHGTPVSLVVSKGPQPIPVPDVRGLAQDAAVKALQDAGLTAVIAPETVNDKTVPKGAVVSQVPANGTLVRGEAVTLTVSKGPKLVKVPSFIGKQADEAEKELKKLGFKVQVNKVLGGFFGTVRDQNPVNTEIPEDSVVTLTVV”, the protein production result was “failed”.

Turning to “MVQHLTAEEIIQYISDAKKSTPIKVYLNGNFEGITYPESFKVFGSEQSKVIFCEADDWKPFYEAYGSQFEDIEIEMDRRNSAIPLKDLTNTNARIEPGAFIREQAIIEDGAVVMMGATINIGAVVGEGTMIDMNATLGGRATTGKNVHVGAGAVLAGVIEPPSASPVIIEDDVLIGANAVILEGVRVGKGAIVAAGAIVTQDVPAGAVVAGTPAKVIKQASEVQDTKKEIVAALRKLND”, the protein production result is “not failed”.

For the sequence “MVQLIKKYEDLLCLLDELIKNESTFRWDEFYLERERDVPFFVLAPDEQLVEYVCTGLIESGKVLELGCGPGRNAIYLAENHFEVDVVDLSQKAIDWAMDRANERKASIRFIRENIFNLNVNKASYDLVYDSGCFHHIPPHRRMDYIHLVTTALKPGGHFGLTCFIENGPLGGAAISDLDVYRQQSLQGGLGFTEQKLIQIFDDFAVIEIRKMKEYPNDSSRFGVNGLLTALFQKKKVEKVKLEHHHHHH”, the protein production entry is “failed”.

For “MVQLSLSQVHQDQIYRHGERCYPEECCGLLLGKILIGENGHRHWQVVEVQPTENCWGDVEEFQQNNHQGNKLHYFAIDPKVLLSAQKDCRQKGLSIIGIFHSHPHGQPIPSEFDRAIAWPEYIYLIASGLEHHHHHH”, the protein production result was “failed”.

With “MVQTIIDPVILPFNGDDTKSSLLTGGDPPSAAELAAKTVEDQLPREANPTAPAVAPLSLSLEDLKAILATVTKDLSQRLTAGSTS”, the protein production result was “failed”.

On to “MVRGDAVIVQAALQDGHWSGRADVLRRVEIPSGLGAWSSVVEDKKQALDLVDRVLSKNPASASAHRTKGAILLFGHPEEAMAEYDAALEIDPNNPAVYAAKTITLIVTGRAREAFSPLQLAHCYVCFGHCARVAEARCSIRTQGAGLRRVALLARSRT”, for which the protein production result is “failed”.

In the case of “MVRGIRGAITVEEDTPEAIHQATRELLLKMLEANGIQSYEELAAVIFTVTEDLTFAFPAEAARQIGMHRVPLLSAREVPVPGSLPRVIRVLALWNTDTPQDRVRHVYLREAVRLRPDLESAQ”, the protein production result is on record as “not failed”.

Consider “MVRHRGNKEERQQALRRYLRSNPFATDEELAEKFEVSVPTIRLDRLALGIPEVRERIMAMAQEARSRMRGVTAEELVGELVELQPGVMGISILEITPPMLVQPAGVARGYYLFAQAHSLALATVGAEVVLTSSARVRYRRPVYAGERVVARAMVKVVKDSTCLVSVHSRVNGEIVFKGRYIIITPDAATGGGSA”, for which the protein production entry is listed as “failed”.

For the sequence “MVRKQKRARLIYNPTSGQEIMKKNVAEVLDILESFGYETSAFQTTPRADSAKNEAARASQAGFDLVIAAGGDGTINEVVSGIAPLKRRPKVAIIPTGTTNDFARALKIPRGNPVEATKLIGKNQTIHMDIGRAYNDKYFINIAAAGSLTELTYSVPSQLKTMFGYLAYLVKGAELLPRVRNVPVKVFYDHGVFEGEASMIFVALTNSVGGFETIAPDAKLDDGKFTLILVKTANLFELTDLIRLVLTGGRHINHKKIEYIKTSYLKIIPQGNPPKRMMINLDGEYGGDAPIELRNLKNHIEFFANTDEISDDAITLDTEELVLEAIAQKFAREAESLDEMDKTKEQD”, the protein production entry was “not failed”.

On to “MVRRCETQRGRWDNKVNILKDTDKFGFDLGFQLQESKKRFGPDLGFCIKRFAPPILQMSLEENENGPKPTWQIRSNRETSKAIRSAPPLTFSSFTGVSLGRKLPNNKNPESSKTRQEGFDTVEEGLKGDRGRTSVDRSEYDGG”, for which the protein production entry is recorded as “failed”.
